Assay [1] addresses CD44v6 on cultured cancer cells (BHT-101, ACT-1, A431) (human) (UniProt P16070). Description: LigandTracer, 125I-IgG4 on BHT-101 cells.
For assay [2] the target is unchanged. Briefly: LigandTracer, 177Lu-antibody on A431 cells.
Assay [3] has the same target. Description: live BHT-101 cells; apparent KD.
For assay [4], the target named is Cynomolgus v6-peptide (cynomolgus). Briefly: SPR SCK, antibody immobilised, peptide injected.
The target in the next assay is T1, Human v6-peptide (human).
T1 sequence (peptide, N-terminal biotin): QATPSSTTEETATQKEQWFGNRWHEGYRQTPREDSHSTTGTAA
Briefly: SPR SCK, antibody immobilised, peptide injected.

Assay [5] concerns the target Human CD44v6 iso4-Fc (human) (UniProt P16070). Description: SPR SCK, antibody immobilised, CD44v6-Fc injected; apparent KD.
The target is the same in assay [6]. Briefly: SPR SCK, antibody immobilised, CD44v6-Fc injected.

Sequence of Cynomolgus v6-peptide (cynomolgus) (peptide, as listed by the source): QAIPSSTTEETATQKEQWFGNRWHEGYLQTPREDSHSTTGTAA
Sequence of Human CD44v6 iso4-Fc (human) (P16070 other isoform, or with tags, fused parts or gaps limits assumed): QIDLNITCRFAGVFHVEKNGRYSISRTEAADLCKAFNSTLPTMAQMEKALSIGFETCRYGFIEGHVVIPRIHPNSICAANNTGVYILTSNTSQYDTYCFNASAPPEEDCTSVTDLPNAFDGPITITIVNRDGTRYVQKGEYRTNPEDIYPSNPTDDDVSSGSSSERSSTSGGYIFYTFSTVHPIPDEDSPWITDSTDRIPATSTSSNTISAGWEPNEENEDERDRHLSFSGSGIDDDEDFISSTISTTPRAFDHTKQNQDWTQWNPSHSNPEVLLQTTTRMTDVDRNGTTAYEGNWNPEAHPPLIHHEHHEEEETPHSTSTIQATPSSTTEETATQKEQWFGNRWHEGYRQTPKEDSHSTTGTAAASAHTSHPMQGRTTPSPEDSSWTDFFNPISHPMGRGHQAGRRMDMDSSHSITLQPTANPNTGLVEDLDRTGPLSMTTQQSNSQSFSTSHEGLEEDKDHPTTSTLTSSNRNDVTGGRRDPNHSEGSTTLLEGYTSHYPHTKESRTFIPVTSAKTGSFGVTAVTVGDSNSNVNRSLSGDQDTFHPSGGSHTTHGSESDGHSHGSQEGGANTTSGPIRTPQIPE

B1: AL-MN114-465 hIgG4 (antibody, V domains shown)
VH: EVQLLESGGGLVQPGGSLRLSCAASGFSFGSYAMSWVRQAPGKGLEWVSAISAGGSSTFYADSVKGRFTISRDNSKNTLYLQMNSLRAEDTAVYYCARHYYSDSDYRSSAAMDYWGQGTLVTVSS
VL: DIQMTQSPSSLSASVGDRVTITCRASQSISSYLNWYQQKPGKAPKLLIYTASSLQSGVPSRFSGSGSGTDFTLTISSLQPEDFATYYCQQDLYLLTFGQGTKLEIK
Consider B1, for which the results for the Kd in assay [1], in assay [2] and in assay [3] were 0.03 nM, 0.03 nM and less than 0.2 nM, respectively.

B2: BIWA4 IgG1 LALA (antibody, from another filing, V domains shown)
VH: EVQLVESGGGLVKPGGSLRLSCAASGFTFSSYDMSWVRQAPGKGLEWVSTISSGGSYTYYLDSIKGRFTISRDNAKNSLYLQMNSLRAEDTAVYYCARQGLDYWGRGTLVTVSS
VL: EIVLTQSPATLSLSPGERATLSCSASSSINYIYWYQQKPGQAPRLLIYLTSNLASGVPARFSGSGSGTDFTLTISSLEPEDFAVYYCLQWSSNPLTFGGGTKVEIKR
Take B2: the figures for the Kd (in assay [4]; with Human v6-peptide (human); in assay [5]) were 12 nM, 15 nM and 0.72 nM, respectively. Besides, the koff (commonly the rate constant with which the complex falls apart) in assay [4] was found to be 0.0035 s⁻¹; in the assay with Human v6-peptide (human), 0.0035 s⁻¹; in assay [6] it was 0.00027 s⁻¹. Besides, the kon (commonly the second-order rate constant of association) in assay [4] came to 280000 M⁻¹ s⁻¹; with Human v6-peptide (human), 240000 M⁻¹ s⁻¹; in assay [6], 370000 M⁻¹ s⁻¹.

B3: BIWA4 IgG1 LALA IAHA (antibody, from another filing, V domains shown)
VH: B2 VH
VL: B2 VL
On to B3, for which the Kd in assay [4] came to 44 nM; in the assay with Human v6-peptide (human) it was 73 nM; in assay [5] it was 14 nM. The koff amounted to 0.0036 s⁻¹ in assay [4], 0.0027 s⁻¹ with Human v6-peptide (human) and 0.00033 s⁻¹ in assay [6]. In addition, the kon in assay [4] was 83000 M⁻¹ s⁻¹; with Human v6-peptide (human), 36000 M⁻¹ s⁻¹; in assay [6], 24000 M⁻¹ s⁻¹.

Values taken from patent publication US20250340662A1.
